In paper PMC5357137, “Target DNA bending by the Mu transpososome promotes careful transposition and prevents its reversal” (eLife, 2017):

Biological target: the molecule itself
Assay: SEC; CDCs formed from a 2:1 mixture of MuA protein and Mu end DNA at 30°C for ≥1 hr; 25 mM HEPES pH 7.4, 200 mM NaCl, 5% glycerol, 0.6 mM Zwittergent 3-12, 0.5 mM EDTA, no Mg2+; Superdex 200 Increase 10/300; tetramer peak collected

B1: MuA transposase lacking domain Iα (residues 1–76) (enzyme)
chain: not shown
notes: MuA transposase of bacteriophage Mu; all constructs lacked domain Iα (residues 1-76); domain IIIβ (the C-terminal ~60 residues) is included; In the assay it stood with Mu end DNA fragments as the cleaved-donor complex (CDC); The crystal structure PDB 4FCY holds a shorter construct without domain IIIβ; also called MuA protein; WT
- stoichiometry N: 4
